In the DeepSol protein solubility set:

Experiment: soluble on expression in E. coli; label from the status in PepcDB or PDB records

Row | Sequence | soluble on expression in E. coli
1 | MQWQTKLPLIAILRGITPDEALAHVGAVIDAGFDAVEIPLNSPQWEQSIPAIVDAYGDKALIGAGTVLKPEQVDALARMGCQLIVTPNIHSEVIRRAVGYGMTVCPGCATATEAFTALEAGAQALKIFPSSAFGPQYIKALKAVLPSDIAVFAVGGVTPENLAQWIDAGCAGAGLGSDLYRAGQSVERTAQQAAAFVKAYREAVQLHHHHHH | soluble
2 | MGSDKIHHHHHHMEDTQSVLQEYGLTAQFIEPVSPLVWKVYTDYGIFALKKLKEGRGKHFTDHMVAIEEKGFRSFVPVYRTNSGEFFSAGIQYGDIYYLMPWLQFDQEEERDQKHAYLFRETARLHERTAQELKVRRDEIERYYGQTKKKWEQDKIFYEQFVDRAEKEWYLSPFELQAITYFSETISAVNFALERLEDWYESAKEKDVSRVVMNHGSLSIHHFLYNDAGTGYFTNFERASVGPPQNDLLGFYTKMFRGFPKACPECVEWFYGYTKSFPLREAEVSLFLSYMAYPAAMYKVLNGYQTGKRQHEKEECTQLLKAYWQMKNIEPFVMKIHQIEQEKKFQAENESTS | not soluble
3 | MIKVDHRPLYLQVIDKLKHDMEAGVYEEGEKLPSEFELSKQLGVSRATLREALRLLEEEGVVVRRHGVGTFVHTKPLFSAGIEELYSVTDMIRHADMEPGTIFLSSYQIEATDDDKRRFQTDNLDQLMMIERVRTADGVPIVYCLDKLPAELIGQHSVHEINSILDHLESGSDRMITHAVTTIEPIGFHEKVSEILECEAETGLLLLKQMHYDQYDTPVLYSYNYFRADKFTFHVVRKRVKA | not soluble
4 | MSLGDKKYVKRLLGSCWDYPFSGSGVGITEREAVLRAFGEYTERFIGMYYQFIARDKMIFATYRDLDKMGLNALSPHSIQLFHKRQYQQKDFPYSKFCEDSLIKWMPGKSLITNEEVYVPASFVLTPYIPERGENLISPSVTTGSAAHSNLTQAIINGIYEVIERDTARIYWYGNLRSTKLKVDNKDIKDFIDFIKNKKDIEVIITYMENDLNIPTFMASIIIGKNNRKSVVTGLSSNINPINGLKKAITEAFHTYLWKLLTQPSPKQQLENFTDHVALYLDPKMYIHFIDFINSNEELSLQSLILASAVYSFDSAERHLNMLIRLLKNKVLDLIVVDITPEILRKTGIHVVKVIIPPLLSILAGHIQYLGDKRLYNEGHHHHHH | not soluble
5 | MGHHHHHHSHSSPEREITLVNLKKDAKYGLGFQIIGGEKMGRLDLGIFISSVAPGGPADLDGCLKPGDRLISVNSVSLEGVSHHAAIEILQNAPEDVTLVISQPKEKISKVPSTPVHLTNEMKNYMKKSSYMQDSAIDSSSKDHHWSRGTLRHISENSFGPSGGLREGSLSSQDSRTESASLSQSQVNGFFASHLGDQ | not soluble
6 | MSLTKHVAVLLAHGFEEAEAVIFIDIMRRLDIRVDILSCEATTALSTYFETPISADALLSDRLDHHYDAVMMPGGPKGTDSLTANPQVIAFLRRHIAQDKYICALCSSGAKVLAAHHLLAGRTYSTGDKLADKFADGVYLDQDVVVDGKFITAKGLGVSFEFAFTVARHLLSDNLPKVEHQASHIYFKHGSAEGHHHHHH | soluble
7 | MNQQTVNVIGAGLAGSEAAWQLAKRGIQVKLYEMRPVKQTPAHHTDKFAELVCSNSLRSNTLANAVGVLKEEMRALDSAIIAAADECSVPAGGALAVDRHEFAASVTNRVKNHPNVTVINEEVTEIPEGPTIIATGPLTSESLSAQLKELTGEDYLYFYDAAAPIVEKDSLDMDKVYLKSRYDKGEAAYLNCPMTEEEFDRFHEALTSAETVPLKEFEKEIFFEGCMPIEVMAKRGKKTMLFGPMKPVGLEHPVTGKRPYAVVQLRQDDAAGTLYNIVGFQTHLKWGDQKEVLKLIPGLENVEIVRYGVMHRNTFINSPSLLKPTYQFKNRSDLFFAGQMTGVEGYVESAASGLVAGINAAKLVLGEELVIFPQETAIGSMAHYITTTNQKNFQPMNANFGLLKELPVKIKNKKERNEQYANRAIETIQTISKTILEHHHHHH | soluble
8 | MGSTSTPDSSTNRLQDKVAIITGGAGGIGETTAKLFVRYGAKVVIADIADDHGQKVCNNIGSPDVISFVHCDVTKDEDVRNLVDTTIAKHGKLDIMFGNVGVLSTTPYSILEAGNEDFKRVMDINVYGAFLVAKHAARVMIPAKKGSIVFTASISSFTAGEGVSHVYTATKHAVLGLTTSLCTELGEYGIRVNCVSPYIVASPLLTDVFGVDSSRVEELAHQAANLKGTLLRAEDVADAVAYLAGDESKYVSGLNLVIDGGYTRTNPAFPTALKHGLA | soluble
9 | GPGSMHDLVADDSQDGDNEVISSEVPLNKHAGDEEATRTSTFKYKKGILINQGYEFDGSSTTCAEVPASAWGSNITGDEEATTTSYVRVYVLVSSQAALKELALPPVGSKGASGVPHATGYVPLTAATRAILGANMENCGW | not soluble
10 | MATLFIADLHLQTEEPAITAGFLRFLQGEARQADALYILGDLFEAWIGDDDPNPLHQQIASAIKAVVDAGVPCYFIHGNRDFLVGQRFARQSGMILLAEEERLDLYGREVLIMHGDTLCTDDQGYLAFRAKVHTPWIQRLFLALPLFIRHRIAARMRADSKAANSSKSMEIMDVNPQAVVDAMERHHVQWLIHGHTHRPAVHELQANGQPAWRVVLGAWHSEGSMVKVTPDDVELIHFPF | not soluble
11 | MSEDYADLHDPNAEYTMRELSAETMGADSGRPAPRDLEITDIQTTMVDGNFPWTLVRVYTDAGVVGTGEAYWGAGVPELIERMTPFVVGENPLDIDRLFEHLVQKMSGEGSVEGVTVTAISGIEVALHDLAGKVLGVPAYQLLGGKYRDEVRVYCDCHTAAEADPEACADEAERVVDDLGYDALKFDLDVPSGLEKDRANRHLRPGEIRHKADIVAAVTERVRDRADVAFDCHWTFSGGSAKRLAAELEAYDVWWLEDPVPPENLDVQASVTESTATPIAVGENRYRVTEARRLIENQAVDIVAPDLPKVGGMRETRKIADVANQYYVPVAMHNVASPVATMASAHVGAAIPNALAVEYHSYELGWWSDLVAEDVIEDGSIEVPERPGLGITLDMDAVEEHMVDGETLFDEA | soluble
12 | MEHKTPKHIVAVAGYLTNEKNEVLLTKVHWRADTWELPGGQVEEGEALDQAVCREIKEETGLTVKPIGITGVYYNTSMHILAVVFKVAYISGEIKIQPEEIQEAKFVDLNEENIDEYITRPHMKSRTLDAMRATHFIPYETWEVQPYNLIGRL | not soluble
13 | MGSDKIHHHHHHMGFKEDFMGNAPGACPFLHLVERSTSDVLEQAEALPFWSQDYTQLSKGAFSGSVTSVSCDGLQIFTETMNQAVDQIASAPVDSYVMGLPTLVDGESTWGLLPITTNSLITLEKNAELYFKTSNISEITAAVIPAQRLETYAAEVEWIDLSKVMEGLKPVEMLHPDIAQQLLSALQGGIQYKADIADNIHAHQMWRNFEDDLLSTCLHTLLHVRGNIHPHFDQRLPRYLVNRVRDYTLSNSALPLTIGELCKSLRVSRRTLNHAFIRVLGITPVAYIRNLRLHRVRFEMQQSPHEVISIAHLATKWGFWHLSLFSRYYRELFGECPIDTLQRARLESKRP | not soluble
14 | PSQDPRTPGGSEWRETGPQFRCLPPVPADMVFLVDGSWSIGHSHFQQVKDFLASVIAPFEIGPDKVQVGLTQYSGDAQTEWDLNSLSTKEQVLAAVRRLRYKGGNTFTGLALTHVLGQNLQPAAGLRPEAAKVVILVTDGKSQDDVHTAARVLKDLGVNVFAVGVKNADEAELRLLASPPRDITVHSVLDFLQLGALAGLLSRLICQRLQGGSPRQGPAAAPALDTLPAPTSLVLSQVTSSSIRLSWTPAPRHPLKYLIVWRASRGGTPREVVVEGPAASTELHNLASRTEYLVSVFPIYEGGVGEGLRGLVTTAPLPPPRALTLAAVTPRTVHLTWQPSAGATHYLVRCSPASPKGEEEEREVQVGRPEVLLDGLEPGRDYEVSVQSLRGPEGSEARGIRARTPTLAPPRHLGFSDVSHDAARVFWEGAPRPVRLVRVTYVSSEGGHSGQTEAPGNATSAMLGPLSSSTTYTVRVTCLYPGGGSSTLTGRVTTKKAPSPSQLSMTELPGDAVQLAWVAAAPSGVLVYQITWTPLGEGKAHEISVPGNLGTAVLPGLGRHTEYDVTILAYYRDGARSDPVSLRYTPSTVSRSPPSNLALASETPDSLQVSWTPPLGRVLHYWLTYAPASGLGPEKSVSVPGARSHVTLPDLQAATKYRVLVSAIYAAGRSEAVSATGQTACPALRPDGSLPGFDLMVAFSLVEKAYASIRGVAMEPSAFGGTPTFTLFKDAQLTRRVSDVYPAPLPPEHTIVFLVRLLPETPREAFALWQMTAEDFQPLLGVLLDGDVGPASPPAVRRSRGREAPEPWEAFRGSPASRPGPQHPLGGRQVSRAGGCGPH | soluble
15 | HERRTVLAEWSIGIDIGGTFTDLVALDYAGGKLHSLKMLTTYDDPSLAVMEGVRQLMATCGIAASEVGRVVHATTLFTNALISRAGARTGLLCNQGFMDAIEIGNERKYDLYDLAIDRPPPLVPRDLRREIPGRLDAHGNELEPLDRQAVVAMARSLADAGATSIAVCLLHAYASPRHEQQVHAWIRQAL | not soluble
16 | MSLAIRQHVGALFTDLYEVTMAQAYWAERMSGTAVFEIFFRKLPPGRSYIMAAGLADVVEFLEAFRFDEQDLRYLRGLGQFSDEFLRWLAGVRFTGDVWAAPEGTVIFPNEPAVQLIAPIIEAQLVETFVLNQIHLQSVLASKAARVVAAARGRPVVDFGARRAHGTDAACKVARTSYLAGAAGTSNLLAARQYGIPTFGTMAHSFVQAFDSEVAAFEAFARLYPATMLLVDTYDTLRGVDHVIELAKRLGNRFDVRAVRLDSGDLDELSKATRARLDTAGLEQVEIFASSGLDENRIAALLAARCPIDGFGVGTQLVVAQDAPALDMAYKLVAYDGSGRTKFSSGKVIYPGRKQVFRKLEHGVFCGDTLGEHGENLPGDPLLVPIMTNGRRIRQHAPTLDGARDWARQQIDALPPELRSLEDTGYSYPVAVSDRIVGELARLRHADTAEAHPGSNVVGAKAKRPEGHHHHHH | not soluble
17 | MGSDKIHHHHHHVRIESIRTKNFKILKDTTIRNIPAMAIFLGANGSGKSTFFDIFGFLHDCLTDNVRAALLKRGGFKEVVSRGQSGPIEFEIKFRSAPGEPLVTYELHINLDDKGLPIVSKELLKYRRGQKGRPWHFLDFSNGVGHAIVNESEYGKPGVQEAREQQTLDSPDILAIKGLGQFQKYKQIASFRRLIEGWHVSDFRIESARSTNDAGYAEHLSATGDNLALVTQFMHEHYSDRFQQVLEKIAQRVPGIKSVEAKETADGRIVLRFQNEEFKDPFISRYVSDGTLKMFAYLILLYDPTPHPLLCIEEPENQLHPDLLLELAEEFRAYASNGGQVFISTHSPDFVNAVQLEELFWLCQGNNGFSKVVRASDEPLLQSLVAEGDLPGSLWKQGFFEGAGPL | not soluble
18 | MSLLRIIDTETCGLQGGIVEIASVDVIDGKIVNPMSHLVRPDRPISPQAMAIHRITEAMVADKPWIEDVIPHYYGSEWYVAHNASFDRRVLPEMPGEWICTMKLARRLWPGIKYSNMALYKTRKLNVQTPPGLHHHRALYDCYITAALLIDIMNTSGWTAEQMADITGRPSLMTTFTFGKYRGKAVSDVAERDPGYLRWLFNNLDSMSPELRLTLKHYLENTEGHHHHHH | soluble
19 | GAVDLNDDVLDMGTGLRMQLYQCGDPRGRPVLYLHGMLDGMAPLEYLKHDFARRGLRVLAPVRPGYGLSEPVAGVEPGLRAMASHAVELIDRFALDRVAILGHMAGAVTGYVLRAGGDPRLAGMVAVAASGPLLRRAQLSGMARRQRMMAMTARWTPALLPFFVRAGIALIDSEEVGRFMDALYPPGSHERQVVDRLELAALMHAGYRFAAQSGTAGFEADALTMVSPWQRLSDGGTCPVVHLHGALDPVVPAAETARFAASISGASFRRFEDVGQFLIYERPDAVLDAIEAMLPPR | not soluble
